Data published in the Immune Epitope Database (IEDB).

What was measured:
[1] = target: HLA-A*68:02; assay: IEDB peptide-MHC binding, cellular MHC/competitive/fluorescence; ≥ and ≤ were set here for values at or beyond the usual limits of such assays
[2] = target: HLA-A*02:01; assay: IEDB peptide-MHC binding, purified MHC/competitive/radioactivity; ≥ and ≤ were set here for values at or beyond the usual limits of such assays
[3] = target: HLA-A*02:02; assay: as above
[4] = target: HLA-A*02:03; assay: as above
[5] = target: HLA-A*02:06; assay: as above
[6] = target: HLA-A*02:01; assay: IEDB peptide-MHC binding, cellular MHC/competitive/fluorescence; ≥ and ≤ were set here for values at or beyond the usual limits of such assays
[7] = target: HLA-A*68:02; assay: IEDB peptide-MHC binding, purified MHC/competitive/radioactivity; ≥ and ≤ were set here for values at or beyond the usual limits of such assays
[8] = source organism: Vaccinia virus WR
[9] = source organism: Hepacivirus hominis
[10] = source organism: Influenza A virus
[11] = source organism: Mammarenavirus brazilense

Q: Which IC50 [1, 8] does the source give for GIIITVGMLI here?
A: 9200 nM

Q: What about the IC50 [2, 8] of the same sequence?
A: 945 nM

Q: What about the IC50 [3, 8] of the same sequence?
A: 3580 nM

Q: What about the IC50 [4, 8] of the same sequence?
A: 595 nM

Q: And the IC50 [5, 8]?
A: 1130 nM

Q: LLNMRDLIV was tested. Which IC50 [1, 8] did it give?
A: 23200 nM

Q: And the IC50 [2, 8]?
A: 42 nM

Q: And the IC50 [3, 8]?
A: 665 nM

Q: And the IC50 [4, 8]?
A: 1.2 nM

Q: And the IC50 [5, 8]?
A: 225 nM

Q: How did the IC50 [1, 8] turn out when YISRDELWA was run?
A: 52700 nM

Q: What about the IC50 [2, 8] of the same sequence?
A: 750 nM

Q: What about the IC50 [3, 8] of the same sequence?
A: 333 nM

Q: What about the IC50 [4, 8] of the same sequence?
A: 242 nM

Q: And the IC50 [5, 8]?
A: 1200 nM

Q: For FLLALLSCI, which IC50 [1, 9] is on record?
A: ≥ 70000 nM

Q: What about the IC50 [2, 9] of the same sequence?
A: 2.4 nM

Q: And the IC50 [3, 9]?
A: 8.7 nM

Q: And the IC50 [4, 9]?
A: 7.3 nM

Q: And the IC50 [5, 9]?
A: 15 nM

Q: ALALEQYGI was tested. Which IC50 [1, 8] did it give?
A: 40400 nM

Q: And the IC50 [2, 8]?
A: 30 nM

Q: And the IC50 [3, 8]?
A: 0.69 nM

Q: What about the IC50 [4, 8] of the same sequence?
A: 40 nM

Q: What about the IC50 [5, 8] of the same sequence?
A: 548 nM

Q: GLLGCIITSL was tested. Which IC50 [1, 9] did it give?
A: 48900 nM

Q: What about the IC50 [2, 9] of the same sequence?
A: 15 nM

Q: What about the IC50 [3, 9] of the same sequence?
A: 35 nM

Q: What about the IC50 [4, 9] of the same sequence?
A: 3.1 nM

Q: And the IC50 [5, 9]?
A: 316 nM

Q: How did the IC50 [1, 8] turn out when VMHINSPFKV was run?
A: 6270 nM

Q: And the IC50 [2, 8]?
A: 13 nM

Q: And the IC50 [3, 8]?
A: 60 nM

Q: And the IC50 [4, 8]?
A: 2.5 nM

Q: And the IC50 [5, 8]?
A: 393 nM

Q: Which IC50 ([1]; source organism: SARS-CoV1) does the source give for KLLIVLTCI here?
A: 5470 nM

Q: What about the IC50 ([2]; source organism: SARS-CoV1) of the same sequence?
A: 229 nM

Q: And the IC50 ([3]; source organism: SARS-CoV1)?
A: 260 nM

Q: What about the IC50 ([4]; source organism: SARS-CoV1) of the same sequence?
A: 1940 nM

Q: And the IC50 ([5]; source organism: SARS-CoV1)?
A: 449 nM

Q: Which IC50 [1, 9] does the source give for FLLALLSCLT here?
A: ≥ 70000 nM

Q: What about the IC50 [2, 9] of the same sequence?
A: 92 nM

Q: And the IC50 [3, 9]?
A: 86 nM

Q: What about the IC50 [4, 9] of the same sequence?
A: 154 nM

Q: What about the IC50 [5, 9] of the same sequence?
A: 592 nM

Q: Which IC50 [1, 8] does the source give for ALLSCIRNA here?
A: ≥ 70000 nM

Q: What about the IC50 [2, 8] of the same sequence?
A: 23 nM

Q: And the IC50 [3, 8]?
A: 120 nM

Q: And the IC50 [4, 8]?
A: 6.2 nM

Q: What about the IC50 [5, 8] of the same sequence?
A: 77 nM

Q: With LLVQYGAKI as the sequence, how does the IC50 [1, 8] read?
A: 6430 nM

Q: What about the IC50 [2, 8] of the same sequence?
A: 1770 nM

Q: What about the IC50 [3, 8] of the same sequence?
A: 206 nM

Q: And the IC50 [4, 8]?
A: 358 nM

Q: What about the IC50 [5, 8] of the same sequence?
A: 1140 nM

Q: Which IC50 [1, 8] does the source give for GLKIEEIEKV here?
A: ≥ 70000 nM

Q: And the IC50 [2, 8]?
A: 65 nM

Q: And the IC50 [3, 8]?
A: 15 nM

Q: What about the IC50 [4, 8] of the same sequence?
A: 6.6 nM

Q: And the IC50 [5, 8]?
A: 198 nM

Q: LLLLSVGVGI was tested. Which IC50 [1, 9] did it give?
A: 52600 nM

Q: What about the IC50 [2, 9] of the same sequence?
A: 764 nM

Q: What about the IC50 [3, 9] of the same sequence?
A: 2570 nM

Q: What about the IC50 [4, 9] of the same sequence?
A: 605 nM

Q: And the IC50 [5, 9]?
A: 714 nM

Q: How did the IC50 [1, 8] turn out when IVSHLRASTT was run?
A: 60600 nM

Q: And the IC50 [2, 8]?
A: 896 nM

Q: What about the IC50 [3, 8] of the same sequence?
A: 139 nM

Q: And the IC50 [4, 8]?
A: 111 nM

Q: And the IC50 [5, 8]?
A: 173 nM

Q: How did the IC50 [1, 9] turn out when LLMALPHQA was run?
A: 9880 nM

Q: What about the IC50 [2, 9] of the same sequence?
A: 73 nM

Q: And the IC50 [3, 9]?
A: 52 nM

Q: What about the IC50 [4, 9] of the same sequence?
A: 10 nM

Q: What about the IC50 [5, 9] of the same sequence?
A: 1560 nM

Q: Which results are given for LALTDVEKRI?
A: IC50 [1, 8]: 14900 nM; IC50 [2, 8]: 1420 nM; IC50 [3, 8]: 199 nM; IC50 [4, 8]: 403 nM; IC50 [5, 8]: 2410 nM

Q: FLLNKEMYL was tested. Which IC50 ([1]; source organism: SARS-CoV1) did it give?
A: 12000 nM

Q: And the IC50 ([2]; source organism: SARS-CoV1)?
A: 1.1 nM

Q: And the IC50 ([3]; source organism: SARS-CoV1)?
A: 0.33 nM

Q: What about the IC50 ([4]; source organism: SARS-CoV1) of the same sequence?
A: 1.1 nM

Q: What about the IC50 ([5]; source organism: SARS-CoV1) of the same sequence?
A: 1.6 nM

Q: With KVDDTFYYV as the sequence, how does the IC50 [1, 8] read?
A: 45500 nM

Q: QLVKDESIQL was tested. Which IC50 [1, 8] did it give?
A: 7940 nM

Q: What about the IC50 [2, 8] of the same sequence?
A: 916 nM

Q: And the IC50 [3, 8]?
A: 157 nM

Q: What about the IC50 [4, 8] of the same sequence?
A: 130 nM

Q: And the IC50 [5, 8]?
A: 1810 nM

Q: AAVTLNRIKI was tested. Which IC50 [1, 8] did it give?
A: 5980 nM

Q: And the IC50 [2, 8]?
A: 2320 nM

Q: What about the IC50 [3, 8] of the same sequence?
A: 830 nM

Q: And the IC50 [4, 8]?
A: 3490 nM

Q: And the IC50 [5, 8]?
A: 1920 nM

Q: For MLVNGDDLVV, which IC50 [1, 9] is on record?
A: 8980 nM

Q: What about the IC50 [2, 9] of the same sequence?
A: 56 nM

Q: And the IC50 [3, 9]?
A: 54 nM

Q: And the IC50 [4, 9]?
A: 104 nM

Q: And the IC50 [5, 9]?
A: 186 nM

Q: Which results are given for LLVTLAILTA?
A: IC50 ([1]; source organism: SARS-CoV1): 16700 nM; IC50 ([2]; source organism: SARS-CoV1): 33 nM; IC50 ([3]; source organism: SARS-CoV1): 4.4 nM; IC50 ([4]; source organism: SARS-CoV1): 43 nM; IC50 ([5]; source organism: SARS-CoV1): 32 nM

Q: What does the source list for FLFLAWIMLL?
A: IC50 ([1]; source organism: SARS-CoV1): 6180 nM; IC50 ([2]; source organism: SARS-CoV1): 80 nM; IC50 ([3]; source organism: SARS-CoV1): 19 nM; IC50 ([4]; source organism: SARS-CoV1): 56 nM; IC50 ([5]; source organism: SARS-CoV1): 1010 nM

Q: How did the IC50 [1, 9] turn out when KLLPQLPGV was run?
A: 42400 nM

Q: What about the IC50 [2, 9] of the same sequence?
A: 1.7 nM

Q: What about the IC50 [3, 9] of the same sequence?
A: 51 nM

Q: And the IC50 [4, 9]?
A: 5.2 nM

Q: What about the IC50 [5, 9] of the same sequence?
A: 1.7 nM

Q: With GLISLILQI as the sequence, how does the IC50 [1, 10] read?
A: 12400 nM

Q: And the IC50 [3, 10]?
A: 27 nM

Q: What about the IC50 [4, 10] of the same sequence?
A: 5.4 nM

Q: What about the IC50 [5, 10] of the same sequence?
A: 205 nM

Q: Which results are given for YAGTIKESLL?
A: IC50 [6, 8]: 21900 nM; IC50 [3, 8]: 1020 nM; IC50 [4, 8]: 4040 nM; IC50 [7, 8]: 1910 nM; IC50 [5, 8]: 1760 nM

Q: With LITLILSNKL as the sequence, how does the IC50 [6, 8] read?
A: 7660 nM

Q: And the IC50 [3, 8]?
A: 225 nM

Q: And the IC50 [4, 8]?
A: 293 nM

Q: And the IC50 [7, 8]?
A: 1490 nM

Q: What about the IC50 [5, 8] of the same sequence?
A: 633 nM

Q: Which IC50 [1, 10] does the source give for RLIDFLKDV here?
A: 31500 nM

Q: What about the IC50 [3, 10] of the same sequence?
A: 16 nM

Q: What about the IC50 [4, 10] of the same sequence?
A: 7.3 nM

Q: What about the IC50 [5, 10] of the same sequence?
A: 65 nM

Q: Which results are given for YIESKAKQL?
A: IC50 [6, 8]: 9620 nM; IC50 [3, 8]: 144 nM; IC50 [4, 8]: 439 nM; IC50 [7, 8]: 1340 nM; IC50 [5, 8]: 2990 nM

Q: AMDSNTLEL was tested. Which IC50 [1, 10] did it give?
A: ≥ 70000 nM

Q: And the IC50 [3, 10]?
A: 254 nM

Q: And the IC50 [4, 10]?
A: 524 nM

Q: What about the IC50 [5, 10] of the same sequence?
A: 1950 nM

Q: How did the IC50 [6, 8] turn out when KTPDYPLIDI was run?
A: 5550 nM

Q: And the IC50 [3, 8]?
A: 1120 nM

Q: And the IC50 [4, 8]?
A: 249 nM

Q: What about the IC50 [7, 8] of the same sequence?
A: 1250 nM

Q: What about the IC50 [5, 8] of the same sequence?
A: 725 nM

Q: Which results are given for IVFGIYKDNL?
A: IC50 [6, 8]: 5460 nM; IC50 [3, 8]: 187 nM; IC50 [4, 8]: 792 nM; IC50 [7, 8]: 628 nM; IC50 [5, 8]: 48 nM

Q: What does the source list for DVNSVQFSIL?
A: IC50 [6, 8]: 6660 nM; IC50 [3, 8]: 2270 nM; IC50 [4, 8]: 1660 nM; IC50 [7, 8]: 2770 nM; IC50 [5, 8]: 3400 nM

Q: What does the source list for LSNCVHPAV?
A: IC50 [6, 11]: 12200 nM; IC50 [3, 11]: 427 nM; IC50 [4, 11]: 1100 nM; IC50 [7, 11]: 682 nM; IC50 [5, 11]: 461 nM

Q: What does the source list for ALCKVTVPT?
A: IC50 [1, 8]: ≥ 70000 nM; IC50 [3, 8]: 110 nM; IC50 [4, 8]: 130 nM; IC50 [5, 8]: 210 nM
